Assays:
Settings in all cases: reference: Flag-PKM2 wild type; sites Y105
TSG101 = TSG101 (UniProt Q99816); experiment: anti-Flag co-IP, TSG101 blot
IQGAP1 [1] = target: IQGAP1 (UniProt P46940); experiment: anti-Flag IP, LC-MS/MS
IQGAP1 [2] = target: IQGAP1 (UniProt P46940); experiment: anti-Flag co-IP, IQGAP1 blot

binding against the reference (TSG101): lost | binding against the reference (IQGAP1 [1]): lost | binding against the reference (IQGAP1 [2]): lost
Substance: PKM2 (pyruvate kinase M2) (from UniProt P14618) Flag-PKM2 Y105F

From PMC11905138
